Data from paper PMC5992430, “C-Reactive Protein (CRP) and Leptin Receptor in Obesity: Binding of Monomeric CRP to Leptin Receptor” (Frontiers in Immunology, 2018).

Target: T1, Soluble recombinant human leptin receptor (human, UniProt P48357 22-839)
T1 construct: leptin receptor (Ob R), human, soluble recombinant form; PDB 3V6O (CRH2 domain) was used only for docking; also called recombinant leptin receptor; Ob R; source: bought: Thermo Fischer, USA (synthesized in Escherichia coli)
T1 sequence (looked up): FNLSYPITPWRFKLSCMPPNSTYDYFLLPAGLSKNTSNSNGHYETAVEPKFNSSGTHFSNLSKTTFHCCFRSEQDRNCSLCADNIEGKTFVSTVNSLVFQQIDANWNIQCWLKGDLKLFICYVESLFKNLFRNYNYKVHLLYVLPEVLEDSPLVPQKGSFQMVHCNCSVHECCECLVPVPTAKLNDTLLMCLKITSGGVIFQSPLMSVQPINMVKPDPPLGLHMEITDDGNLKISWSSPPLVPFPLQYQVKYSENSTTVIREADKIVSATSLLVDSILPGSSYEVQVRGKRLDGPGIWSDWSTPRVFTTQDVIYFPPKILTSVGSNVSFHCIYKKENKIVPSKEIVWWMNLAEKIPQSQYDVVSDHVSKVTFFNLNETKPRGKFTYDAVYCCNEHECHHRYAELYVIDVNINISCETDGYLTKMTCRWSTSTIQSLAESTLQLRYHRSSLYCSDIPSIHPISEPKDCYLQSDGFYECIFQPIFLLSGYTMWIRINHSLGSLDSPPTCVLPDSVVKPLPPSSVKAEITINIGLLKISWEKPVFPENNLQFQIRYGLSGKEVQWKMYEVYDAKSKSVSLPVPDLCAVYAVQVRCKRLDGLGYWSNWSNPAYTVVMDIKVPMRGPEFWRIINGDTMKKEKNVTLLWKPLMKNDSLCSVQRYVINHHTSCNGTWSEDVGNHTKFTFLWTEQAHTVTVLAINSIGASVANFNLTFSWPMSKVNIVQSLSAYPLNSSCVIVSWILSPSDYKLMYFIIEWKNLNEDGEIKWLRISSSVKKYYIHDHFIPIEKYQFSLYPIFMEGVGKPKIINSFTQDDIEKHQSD
Test: ELISA; solid phase binding assay; CRP forms or control proteins coated on a 96-well plate at 4°C overnight in Tris/HCl 0.05 M pH 7.4 (different concentrations, or 0.6 µg/ml for Figure 5B); blocked with 0.5% gelatin; leptin receptor 100 ng/ml in 50 µl PBS added for 1 h at RT; detected with anti-Ob R antibody and HRP anti-rabbit IgG
Details: both partners purified

- Kd: 10.2 nM
B1: Monomeric CRP prepared from human serum CRP (natural protein, UniProt P02741 19-224, looked up)
chain: QTDMSRKAFVFPKESDTSYVSLKAPLTKPLKAFTVCLHFYTELSSTRGYSIFSYATKRQDNEILIFWSKDIGYSFTVGGSEILFEVPEVTVAPVHICTSWESASGIVEFWVDGKPRVRKSLKKGYTVGAEASIILGQEQDSFGGNFEGSQSLVGDIGNVNMWDFVLSPDEINTIYLGGPFSPNVLNWRALKYEVQGEVFTKPQLWP
notes: C-reactive protein, human, from serum; protomer of 206 amino acid residues as printed in the introduction; dissociated to the monomer with urea/EDTA; Same chain as native CRP, dissociated to monomers; also called s-mCRP; human mCRP; source: bought: Thermo Fischer, USA (human CRP); made monomeric with 8 M urea/10 mM EDTA at 37°C for 2 h
